From IntAct's records for PubMed 31515488

B1: Rab-like protein 2A (Homo sapiens), Q9UBK7 (parent)
chain: MAEDKTKPSELDQGKYDADDNVKIICLGDSAVGKSKLMERFLMDGFQPQQLSTYALTLYKHTATVDGKTILVDFWDTAGQERFQSMHASYYHKAHACIMVFDIQRKVTYRNLSTWYTELREFRPEIPCIVVANKIDDINVTQKSFNFAKKFSLPLYFVSAADGTNVVKLFNDAIRLAVSYKQNSQDFMDEIFQELENFSLEQEEEDVPDQEQSSSIETPSEEVASPHS
partner: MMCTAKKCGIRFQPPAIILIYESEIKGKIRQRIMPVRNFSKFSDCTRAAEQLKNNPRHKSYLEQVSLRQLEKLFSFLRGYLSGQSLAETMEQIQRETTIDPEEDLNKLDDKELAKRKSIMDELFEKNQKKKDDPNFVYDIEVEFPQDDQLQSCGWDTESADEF
B2: Tuftelin-interacting protein 11 (Homo sapiens), Q9UBB9 (parent)
chain: MSLSHLYRDGEGRIDDDDDERENFEITDWDLQNEFNPNRQRHWQTKEEATYGVWAERDSDDERPSFGGKRARDYSAPVNFISAGLKKGAAEEAELEDSDDEEKPVKQDDFPKDFGPRKLKTGGNFKPSQKGFAGGTKSFMDFGSWERHTKGIGQKLLQKMGYVPGRGLGKNAQGIINPIEAKQRKGKGAVGAYGSERTTQSMQDFPVVDSEEEAEEEFQKELSQWRKDPSGSKKKPKYSYKTVEELKAKGRISKKLTAPQKELSQVKVIDMTGREQKVYYSYSQISHKHNVPDDGLPLQSQQLPQSGKEAKAPGFALPELEHNLQLLIDLTEQEIIQNDRQLQYERDMVVNLFHELEKMTEVLDHEERVISNLSKVLEMVEECERRMQPDCSNPLTLDECARIFETLQDKYYEEYRMSDRVDLAVAIVYPLMKEYFKEWDPLKDCTYGTEIISKWKSLLENDQLLSHGGQDLSADAFHRLIWEVWMPFVRNIVTQWQPRNCDPMVDFLDSWVHIIPVWILDNILDQLIFPKLQKEVENWNPLTDTVPIHSWIHPWLPLMQARLEPLYSPIRSKLSSALQKWHPSDSSAKLILQPWKDVFTPGSWEAFMVKNIVPKLGMCLGELVINPHQQHMDAFYWVIDWEGMISVSSLVGLLEKHFFPKWLQVLCSWLSNSPNYEEITKWYLGWKSMFSDQVLAHPSVKDKFNEALDIMNRAVSSNVGAYMQPGARENIAYLTHTERRKDFQYEAMQERREAENMAQRGIGVAASSVPMNFKDLIETKAEEHNIVFMPVIGKRHEGKQLYTFGRIVIYIDRGVVFVQGEKTWVPTSLQSLIDMAK
partner: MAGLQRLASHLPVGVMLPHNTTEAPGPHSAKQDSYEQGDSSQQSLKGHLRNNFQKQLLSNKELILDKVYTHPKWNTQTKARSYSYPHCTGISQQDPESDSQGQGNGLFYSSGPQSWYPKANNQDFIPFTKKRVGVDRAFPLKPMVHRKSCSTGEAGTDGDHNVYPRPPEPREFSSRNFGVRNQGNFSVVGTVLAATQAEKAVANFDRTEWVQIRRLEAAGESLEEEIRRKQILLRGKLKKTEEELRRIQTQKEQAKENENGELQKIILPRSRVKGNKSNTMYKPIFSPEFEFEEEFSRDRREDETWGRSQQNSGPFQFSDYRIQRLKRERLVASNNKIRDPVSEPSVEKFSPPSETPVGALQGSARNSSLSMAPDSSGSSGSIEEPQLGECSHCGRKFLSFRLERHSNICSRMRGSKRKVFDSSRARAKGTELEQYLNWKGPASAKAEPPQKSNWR
B3: DNA topoisomerase 3-beta-1 (Homo sapiens), O95985 (parent)
chain: MKTVLMVAEKPSLAQSIAKILSRGSLSSHKGLNGACSVHEYTGTFAGQPVRFKMTSVCGHVMTLDFLGKYNKWDKVDPAELFSQAPTEKKEANPKLNMVKFLQVEGRGCDYIVLWLDCDKEGENICFEVLDAVLPVMNKAHGGEKTVFRARFSSITDTDICNAMACLGEPDHNEALSVDARQELDLRIGCAFTRFQTKYFQGKYGDLDSSLISFGPCQTPTLGFCVERHDKIQSFKPETYWVLQAKVNTDKDRSLLLDWDRVRVFDREIAQMFLNMTKLEKEAQVEATSRKEKAKQRPLALNTVEMLRVASSSLGMGPQHAMQTAERLYTQGYISYPRTETTHYPENFDLKGSLRQQANHPYWADTVKRLLAEGINRPRKGHDAGDHPPITPMKSATEAELGGDAWRLYEYITRHFIATVSHDCKYLQSTISFRIGPELFTCSGKTVLSPGFTEVMPWQSVPLEESLPTCQRGDAFPVGEVKMLEKQTNPPDYLTEAELITLMEKHGIGTDASIPVHINNICQRNYVTVESGRRLKPTNLGIVLVHGYYKIDAELVLPTIRSAVEKQLNLIAQGKADYRQVLGHTLDVFKRKFHYFVDSIAGMDELMEVSFSPLAATGKPLSRCGKCHRFMKYIQAKPSRLHCSHCDETYTLPQNGTIKLYKELRCPLDDFELVLWSSGSRGKSYPLCPYCYNHPPFRDMKKGMGCNECTHPSCQHSLSMLGIGQCVECESGVLVLDPTSGPKWKVACNKCNVVAHCFENAHRVRVSADTCSVCEAALLDVDFNKAKSPLPGDETQHMGCVFCDPVFQELVELKHAASCHPMHRGGPGRRQGRGRGRARRPPGKPNPRRPKDKMSALAAYFV
partner: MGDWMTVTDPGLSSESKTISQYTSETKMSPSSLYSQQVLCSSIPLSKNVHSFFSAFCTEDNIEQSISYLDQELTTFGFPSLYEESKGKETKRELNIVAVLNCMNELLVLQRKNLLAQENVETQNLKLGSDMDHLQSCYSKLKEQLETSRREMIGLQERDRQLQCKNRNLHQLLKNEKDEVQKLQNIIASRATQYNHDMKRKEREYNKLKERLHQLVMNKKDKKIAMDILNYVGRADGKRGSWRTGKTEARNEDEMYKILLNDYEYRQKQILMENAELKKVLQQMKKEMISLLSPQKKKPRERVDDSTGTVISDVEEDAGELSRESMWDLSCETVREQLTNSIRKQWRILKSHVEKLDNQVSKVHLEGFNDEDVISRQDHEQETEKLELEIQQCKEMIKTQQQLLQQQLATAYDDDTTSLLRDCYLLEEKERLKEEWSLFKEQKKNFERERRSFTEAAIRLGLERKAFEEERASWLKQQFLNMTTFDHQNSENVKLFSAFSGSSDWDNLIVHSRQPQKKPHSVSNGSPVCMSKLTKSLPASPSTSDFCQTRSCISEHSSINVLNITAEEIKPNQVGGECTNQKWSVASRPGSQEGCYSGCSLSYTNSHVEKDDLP
B4: Synaptotagmin-like protein 5 (Homo sapiens), Q8TDW5 (parent)
chain: MSKNSEFINLSFLLDHEKEMILGVLKRDEYLKKVEDKRIRKLKNELLEAKRRSGKTQQEASRVCVHCHRNLGLIFDRGDPCQACSLRVCRECRVAGPNGSWKCTVCDKIAQLRIITGEWFFEEKAKRFKQVNVLGTDVVRQSILRRSPGAEEVQSQEQTRQDAEKSDTSPVAGKKASHDGPKRKGFLLSKFRSATRGEIITPKTDTGRSYSLDLDGQHFRSLKSPPGSDRGSTGSSDLNDQEPGPRTPKSSRSNGVTPGTQSSPAPSTRTVTSVISREYGFENSMDLAAIEGTSQELTKSHRRNTSGTPSIAVSGTSLSSDQSRSELDLSESFTEDSEDTVSIRSKSVPGALDKDSLEETEESIDALVSSQLSTNTHRLASGLSTTSLNSMMSVYSETGDYGNVKVSGEILLHISYCYKTGGLYIFVKNCRNLAIGDEKKQRTDAYVKSYLLPDKSRNNKRKTKIRTGTNPEFNETLKYTISHTQLETRTLQLSVWHYDRFGRNSFLGEVEIPFDSWNFENPTDEWFVLQPKVEFAPDIGLQYKGELTVVLRYIPPEENLMLPPEQLQGNKTFKKGKKKESPVISGGILEVFIKEAKNLTAVKSGGTSDSFVKGYLLPDDSKATKHKTLVIKKSVNPQWNHTFMFSGIHPQDIKNVCLELTIWDKEAFSSNIFLGGVRLNSGSGVSHGKNVDWMDSQGEEQRLWQKMANNPGTPFEGVLMLRSSMGKCRL
B5: Vasculin (Homo sapiens), Q86WP2 (parent)
chain: MAQHDFAPAWLNFPTPPSSTKSSLNFEKHSENFAWTENRYDVNRRRHNSSDGFDSAIGRPNGGNFGRKEKNGWRTHGRNGTENINHRGGYHGGSSRSRSSIFHAGKSQGLHENNIPDNETGRKEDKRERKQFEAEDFPSLNPEYEREPNHNKSLAAGVWEYPPNPKSRAPRMLVIKKGNTKDLQLSGFPVVGNLPSQPVKNGTGPSVYKGLVPKPAAPPTKPTQWKSQTKENKVGTSFPHESTFGVGNFNAFKSTAKNFSPSTNSVKECNRSNSSSPVDKLNQQPRLTKLTRMRTDKKSEFLKALKRDRVEEEHEDESRAGSEKDDDSFNLHNSNSTHQERDINRNFDENEIPQENGNASVISQQIIRSSTFPQTDVLSSSLEAEHRLLKEMGWQEDSENDETCAPLTEDEMREFQVISEQLQKNGLRKNGILKNGLICDFKFGPWKNSTFKPTTENDDTETSSSDTSDDDDV
partner: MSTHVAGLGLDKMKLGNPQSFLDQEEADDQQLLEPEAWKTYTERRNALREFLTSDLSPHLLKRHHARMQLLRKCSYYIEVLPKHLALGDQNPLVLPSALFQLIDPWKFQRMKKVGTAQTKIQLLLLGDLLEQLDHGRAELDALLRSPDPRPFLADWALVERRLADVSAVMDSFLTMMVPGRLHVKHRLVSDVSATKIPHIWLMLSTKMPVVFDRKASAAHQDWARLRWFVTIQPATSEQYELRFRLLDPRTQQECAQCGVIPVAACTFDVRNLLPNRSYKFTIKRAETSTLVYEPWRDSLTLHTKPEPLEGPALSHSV
B6: Notch homolog 2 N-terminal-like protein A (Homo sapiens), Q7Z3S9 (parent)
chain: MCVTYHNGTGYCKCPEGFLGEYCQHRDPCEKNRCQNGGTCVAQAMLGKATCRCASGFTGEDCQYSTSHPCFVSRPCLNGGTCHMLSRDTYECTCQVGFTGKECQWTDACLSHPCANGSTCTTVANQFSCKCLTGFTGQKCETDVNECDIPGHCQHGGTCLNLPGSYQCQCLQGFTGQYCDSLYVPCAPSPCVNGGTCRQTGDFTFECNCLPETVRRGTELWERDREVWNGKEHDEN
partner: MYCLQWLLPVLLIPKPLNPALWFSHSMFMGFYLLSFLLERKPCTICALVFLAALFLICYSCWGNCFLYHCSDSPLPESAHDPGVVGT

Variants of: B1
Conditions: with cep19_human CEP19, Q96LK0

effect of a mutation on the interaction	Variant
with no effect	A94T
with no effect	L119F

Variants of: B2
Conditions: with zc21c_human ZC2HC1C

effect of a mutation on the interaction	Variant
with no effect	R8Q
with no effect	S688L

Variants of: B3
Conditions: with adip_human SSX2IP

effect of a mutation on the interaction	Variant
disrupting interaction strength	R267W

Variants of: B4
Conditions: with cep70_human CEP70, Q8NHQ1
Chain of cep70_human CEP70, Q8NHQ1 (Q8NHQ1 whole entry): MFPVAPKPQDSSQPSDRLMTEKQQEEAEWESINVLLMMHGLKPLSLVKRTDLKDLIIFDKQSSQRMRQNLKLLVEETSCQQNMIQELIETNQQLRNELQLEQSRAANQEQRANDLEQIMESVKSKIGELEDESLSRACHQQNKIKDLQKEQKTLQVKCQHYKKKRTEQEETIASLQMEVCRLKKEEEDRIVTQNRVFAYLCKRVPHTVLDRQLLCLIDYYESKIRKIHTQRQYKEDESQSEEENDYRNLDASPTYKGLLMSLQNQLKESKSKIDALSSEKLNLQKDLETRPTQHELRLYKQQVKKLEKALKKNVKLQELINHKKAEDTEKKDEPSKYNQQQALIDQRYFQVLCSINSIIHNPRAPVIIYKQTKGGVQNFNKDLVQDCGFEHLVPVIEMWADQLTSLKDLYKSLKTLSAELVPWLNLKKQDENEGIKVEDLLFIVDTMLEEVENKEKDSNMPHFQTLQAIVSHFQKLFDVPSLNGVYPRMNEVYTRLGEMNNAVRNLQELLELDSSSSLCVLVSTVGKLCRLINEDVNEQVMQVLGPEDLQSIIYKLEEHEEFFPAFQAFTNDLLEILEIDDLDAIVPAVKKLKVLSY

effect of a mutation on the interaction	Variant
with no effect	D400N
with no effect	S369P
with no effect	R160H

Variants of: B5
Conditions: with fnd11_human FNDC11, Q9BVV2

effect of a mutation on the interaction	Variant
with no effect	T223A
with no effect	S449R

Variants of: B6
Conditions: with blcap_human BLCAP

effect of a mutation on the interaction	Variant
with no effect	R74Q
